{"source": "the RNAGym collection of RNA variant scans (doi:10.7554/elife.80360)", "parents": {"B1": {"name": "Hammerhead Ribozyme (parent)", "chain": "ACCGGAUGUGCUUUCCGGUCUGAUGAGUCCGUGAGGACGAAACAG"}}, "data": [{"variants_of": "B1", "assay": "self-cleavage, relative activity (ratio to wild type); higher = more cleavage; co-transcriptional", "values": [{"variant": "ACCGGAUGUGCAUUCCGGUCUGAUGAGUCCGUGAUGACGAAACAG", "note": "[U12A G35U]", "self-cleavage": 0.629}, {"variant": "ACCGGAUGUGCAUUCCGGUCUGAUGAGUCCGUGACGACGAAACAG", "note": "[U12A G35C]", "self-cleavage": 0.653}, {"variant": "ACCGGAUGUGCAUUCCGGUCUGAUGAGUCCGUGAAGACGAAACAG", "note": "[U12A G35A]", "self-cleavage": 0.724}, {"variant": "ACCGGAUGUGCAUUCCUGUCUGAUGAGUCCGUGAGGACGAAACAG", "note": "[U12A G17U]", "self-cleavage": 0.827}, {"variant": "ACCGGAUGUGCAUUCCAGUCUGAUGAGUCCGUGAGGACGAAACAG", "note": "[U12A G17A]", "self-cleavage": 0.77}, {"variant": "ACCGGAUGUGCAUUCCCGUCUGAUGAGUCCGUGAGGACGAAACAG", "note": "[U12A G17C]", "self-cleavage": 0.423}, {"variant": "ACCGGAUGUGCAUUCCGGUCUCAUGAGUCCGUGAGGACGAAACAG", "note": "[U12A G22C]", "self-cleavage": 0.236}, {"variant": "ACCGGAUGUGCAUUCCGGUCUUAUGAGUCCGUGAGGACGAAACAG", "note": "[U12A G22U]", "self-cleavage": 0.328}, {"variant": "ACCGGAUGUGCAUUCCGGUCUAAUGAGUCCGUGAGGACGAAACAG", "note": "[U12A G22A]", "self-cleavage": 0.261}, {"variant": "ACCGGAUGUGCAUUCCGGUCCGAUGAGUCCGUGAGGACGAAACAG", "note": "[U12A U21C]", "self-cleavage": 0.517}, {"variant": "ACCGGAUGUGCAUUCCGGUCAGAUGAGUCCGUGAGGACGAAACAG", "note": "[U12A U21A]", "self-cleavage": 0.658}, {"variant": "ACCGGAUGUGCAUUCCGGUCGGAUGAGUCCGUGAGGACGAAACAG", "note": "[U12A U21G]", "self-cleavage": 0.425}, {"variant": "ACCGGAUGUGCAUUCCGGUCUGAUUAGUCCGUGAGGACGAAACAG", "note": "[U12A G25U]", "self-cleavage": 0.331}, {"variant": "ACCGGAUGUGCAUUCCGGUCUGAUAAGUCCGUGAGGACGAAACAG", "note": "[U12A G25A]", "self-cleavage": 0.303}, {"variant": "ACCGGAUGUGCAUUCCGGUCUGAUCAGUCCGUGAGGACGAAACAG", "note": "[U12A G25C]", "self-cleavage": 0.224}, {"variant": "ACCGGAUGUGCAUUCCGGUCUGAUGAGUCCGUGAGGACGAAAAAG", "note": "[U12A C43A]", "self-cleavage": 0.33}, {"variant": "ACCGGAUGUGCAUUCCGGUCUGAUGAGUCCGUGAGGACGAAAGAG", "note": "[U12A C43G]", "self-cleavage": 0.301}, {"variant": "ACCGGAUGUGCAUUCCGGUCUGAUGAGUCCGUGAGGACGAAAUAG", "note": "[U12A C43U]", "self-cleavage": 0.392}, {"variant": "ACCGGAUGUGCAUUCCGGUCUGAUGAAUCCGUGAGGACGAAACAG", "note": "[U12A G27A]", "self-cleavage": 0.77}, {"variant": "ACCGGAUGUGCAUUCCGGUCUGAUGAUUCCGUGAGGACGAAACAG", "note": "[U12A G27U]", "self-cleavage": 0.412}, {"variant": "ACCGGAUGUGCAUUCCGGUCUGAUGACUCCGUGAGGACGAAACAG", "note": "[U12A G27C]", "self-cleavage": 0.663}, {"variant": "ACCGGAUGUGCAUUCCGGUCUGAUGAGUCCGUGAGUACGAAACAG", "note": "[U12A G36U]", "self-cleavage": 0.596}, {"variant": "ACCGGAUGUGCAUUCCGGUCUGAUGAGUCCGUGAGAACGAAACAG", "note": "[U12A G36A]", "self-cleavage": 0.571}, {"variant": "ACCGGAUGUGCAUUCCGGUCUGAUGAGUCCGUGAGCACGAAACAG", "note": "[U12A G36C]", "self-cleavage": 0.758}, {"variant": "ACCGGAUGUGCAUACCGGUCUGAUGAGUCCGUGAGGACGAAACAG", "note": "[U12A U14A]", "self-cleavage": 0.798}, {"variant": "ACCGGAUGUGCAUCCCGGUCUGAUGAGUCCGUGAGGACGAAACAG", "note": "[U12A U14C]", "self-cleavage": 0.946}, {"variant": "ACCGGAUGUGCAUGCCGGUCUGAUGAGUCCGUGAGGACGAAACAG", "note": "[U12A U14G]", "self-cleavage": 0.565}, {"variant": "ACCGGAUGUGCAUUCCGGUCUGAUGAGUCCUUGAGGACGAAACAG", "note": "[U12A G31U]", "self-cleavage": 1.12}, {"variant": "ACCGGAUGUGCAUUCCGGUCUGAUGAGUCCAUGAGGACGAAACAG", "note": "[U12A G31A]", "self-cleavage": 0.978}, {"variant": "ACCGGAUGUGCAUUCCGGUCUGAUGAGUCCCUGAGGACGAAACAG", "note": "[U12A G31C]", "self-cleavage": 0.801}, {"variant": "ACCGGAUGUGCAUUCCGGUCUGAUGAGUCCGUGAGGACUAAACAG", "note": "[U12A G39U]", "self-cleavage": 0.361}, {"variant": "ACCGGAUGUGCAUUCCGGUCUGAUGAGUCCGUGAGGACAAAACAG", "note": "[U12A G39A]", "self-cleavage": 0.257}, {"variant": "ACCGGAUGUGCAUUCCGGUCUGAUGAGUCCGUGAGGACCAAACAG", "note": "[U12A G39C]", "self-cleavage": 0.338}, {"variant": "ACCGGAUGUGCAUUCCGGUCUGAUGAGUCCGUUAGGACGAAACAG", "note": "[U12A G33U]", "self-cleavage": 1.03}, {"variant": "ACCGGAUGUGCAUUCCGGUCUGAUGAGUCCGUCAGGACGAAACAG", "note": "[U12A G33C]", "self-cleavage": 1.37}, {"variant": "ACCGGAUGUGCAUUCCGGUCUGAUGAGUCCGUAAGGACGAAACAG", "note": "[U12A G33A]", "self-cleavage": 1.08}, {"variant": "ACCGGAUGUGCAUUCCGGUCUGAUGAGUCCGUGAGGACGAAACAA", "note": "[U12A G45A]", "self-cleavage": 0.678}, {"variant": "ACCGGAUGUGCAUUCCGGUCUGAUGAGUCCGUGAGGACGAAACAU", "note": "[U12A G45U]", "self-cleavage": 0.67}, {"variant": "ACCGGAUGUGCAUUCCGGUCUGAUGAGUCCGUGAGGACGAAACAC", "note": "[U12A G45C]", "self-cleavage": 0.602}, {"variant": "ACCGGAUGUGCAGUCCGGUCUGAUGAGUCCGUGAGGACGAAACAG", "note": "[U12A U13G]", "self-cleavage": 0.762}, {"variant": "ACCGGAUGUGCAAUCCGGUCUGAUGAGUCCGUGAGGACGAAACAG", "note": "[U12A U13A]", "self-cleavage": 1.23}, {"variant": "ACCGGAUGUGCACUCCGGUCUGAUGAGUCCGUGAGGACGAAACAG", "note": "[U12A U13C]", "self-cleavage": 1.05}, {"variant": "ACCGGAUGUGCAUUCCGAUCUGAUGAGUCCGUGAGGACGAAACAG", "note": "[U12A G18A]", "self-cleavage": 0.726}, {"variant": "ACCGGAUGUGCAUUCCGUUCUGAUGAGUCCGUGAGGACGAAACAG", "note": "[U12A G18U]", "self-cleavage": 0.888}, {"variant": "ACCGGAUGUGCAUUCCGCUCUGAUGAGUCCGUGAGGACGAAACAG", "note": "[U12A G18C]", "self-cleavage": 0.565}, {"variant": "ACCGGAUGUGCAUUCCGGUCUGAUGAGUCCGUGAGGAUGAAACAG", "note": "[U12A C38U]", "self-cleavage": 0.87}, {"variant": "ACCGGAUGUGCAUUCCGGUCUGAUGAGUCCGUGAGGAGGAAACAG", "note": "[U12A C38G]", "self-cleavage": 0.719}, {"variant": "ACCGGAUGUGCAUUCCGGACUGAUGAGUCCGUGAGGACGAAACAG", "note": "[U12A U19A]", "self-cleavage": 0.419}, {"variant": "ACCGGAUGUGCAUUCCGGCCUGAUGAGUCCGUGAGGACGAAACAG", "note": "[U12A U19C]", "self-cleavage": 0.366}, {"variant": "ACCGGAUGUGCAUUCCGGGCUGAUGAGUCCGUGAGGACGAAACAG", "note": "[U12A U19G]", "self-cleavage": 0.431}, {"variant": "ACCGGAUGUGCAUUCCGGUCUGAUGAGUCCGAGAGGACGAAACAG", "note": "[U12A U32A]", "self-cleavage": 0.698}, {"variant": "ACCGGAUGUGCAUUCCGGUCUGAUGAGCCCGUGAGGACGAAACAG", "note": "[U12A U28C]", "self-cleavage": 1.1}, {"variant": "ACCGGAUGUGCAUUCCGGUCUGAUGAGACCGUGAGGACGAAACAG", "note": "[U12A U28A]", "self-cleavage": 0.873}, {"variant": "ACCGGAUGUGCAUUCCGGUCUGAUGAGGCCGUGAGGACGAAACAG", "note": "[U12A U28G]", "self-cleavage": 0.92}, {"variant": "ACCGGAUGUGCAUUCCGGUCUGAGGAGUCCGUGAGGACGAAACAG", "note": "[U12A U24G]", "self-cleavage": 1.23}, {"variant": "ACCGGAUGUGCAUUCCGGUCUGAAGAGUCCGUGAGGACGAAACAG", "note": "[U12A U24A]", "self-cleavage": 0.937}, {"variant": "ACCGGAUGUGCAUUCCGGUCUGACGAGUCCGUGAGGACGAAACAG", "note": "[U12A U24C]", "self-cleavage": 0.727}]}]}
